We go through seven molecules from US20250043004A1 (Janssen / Centocor, published 2025).

The target in assay [1] is T1, BCMA (human, UniProt Q02223 1-184).
T1 construct: whole, on cells; On NCI-H929 myeloma cells, which also carry CD28; also called B-cell maturation antigen; TNFRSF17
T1 sequence (looked up): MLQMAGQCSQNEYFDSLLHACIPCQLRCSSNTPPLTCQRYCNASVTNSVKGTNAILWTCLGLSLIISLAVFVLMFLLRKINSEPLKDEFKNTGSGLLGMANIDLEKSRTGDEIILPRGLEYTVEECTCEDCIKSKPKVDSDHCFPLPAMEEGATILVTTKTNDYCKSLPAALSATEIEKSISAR
Kind of assay: flow cytometry, H929 cells; antibody has no CD28 arm. (In flow cytometry, cells or beads pass a laser one at a time.)

Assay [2] has as its target T2, T cell receptor Vβ17 on human T cells (human).
T2 construct: whole, on cells; Vβ17+ fraction (about 5%) of human pan T cells, αβ-enriched T cells or M1-stimulated T cells; also called TCR Vβ17; Vb17
As to the kind of experiment: flow cytometry, human pan T cells, donor 1; antibody has no CD28 arm.

The target in assay [3] is T2, T cell receptor Vβ17 on human T cells. Kind of assay: flow cytometry, human pan T cells, donor 2; antibody has no CD28 arm.
The target of assay [4] is T3, CD28 (human, UniProt P10747 19-220).
T3 construct: whole, on cells; On human pan T cells and on H929 myeloma cells; the assay field says which; also called Cluster of Differentiation 28
As to the kind of experiment: flow cytometry, human pan T cells.
Description: Post Pan T cell isolation. 0.1×10⁶ cells were seeded per well of a 96 well V-bottom plate. Cells were stained with the fixable violet live/dead stain (L34955, Thermofisher) for 20 mins on ice in dark according to the manufacturer's protocol. Post staining cells were washed with FACS buffer (PBS+2% FBS) by spinning at 1500 rpm for 5 mins. Supernatant was discarded and cells were suspended in 100 μl the respective antibody dilutions with a starting concentration of 5 g/ml and 3-fold serial dilutions. Antibody dilutions were prepared in FACS buffer. Cells were incubated with the antibody dilutions for 30 mins at 37° C. At the end of the incubation period, cells were washed twice with FACS buffer as above followed by staining with PE conjugated Goat polyclonal antibody to human IgG (ab98596, Abcam) at a 1:50 dilution in FACS buffer. Cells were incubated with the secondary antibody for 30 mins on ice. At the end of incubation period the cells were washed with FACS buffer as above. […] Cells were pelleted and resuspended in FACS buffer for acquisition on the NOVOCYTE flow cytometer (ACEA Biosciences). For binding assays using the H929 cells, 0.1×10⁶ H929 cells were seeded per well of a 96 well V-bottom plate and stained as above. Samples were analyzed by gating on the live cells and percentage binding was obtained by subtracting the background fluorescence from the secondary only control. […]

For assay [5], the target named is T3, CD28. Kind of assay: flow cytometry, H929 cells (BCMA+, CD28+); whole-cell EC50, antibody has BCMA and CD28 arms.
Description: (§1) Post Pan T cell isolation. 0.1×10⁶ cells were seeded per well of a 96 well V-bottom plate. Cells were stained with the fixable violet live/dead stain (L34955, Thermofisher) for 20 mins on ice in dark according to the manufacturer's protocol. Post staining cells were washed with FACS buffer (PBS+2% FBS) by spinning at 1500 rpm for 5 mins. Supernatant was discarded and cells were suspended in 100 μl the respective antibody dilutions with a starting concentration of 5 g/ml and 3-fold serial dilutions. Antibody dilutions were prepared in FACS buffer. Cells were incubated with the antibody dilutions for 30 mins at 37° C. At the end of the incubation period, cells were washed twice with FACS buffer as above followed by staining with PE conjugated Goat polyclonal antibody to human IgG (ab98596, Abcam) at a 1:50 dilution in FACS buffer. Cells were incubated with the secondary antibody for 30 mins on ice. At the end of incubation period the cells were washed with FACS buffer as above. […] Cells were pelleted and resuspended in FACS buffer for acquisition on the NOVOCYTE flow cytometer (ACEA Biosciences). For binding assays using the H929 cells, 0.1×10⁶ H929 cells were seeded per well of a 96 well V-bottom plate and stained as above. Samples were analyzed by gating on the live cells and percentage binding was obtained by subtracting the background fluorescence from the secondary only control.
The target of assay [6] is T1, BCMA. The description is as above.
Description: as §1
Assay [7] deals with T3, CD28. Kind of assay: flow cytometry, human pan T cells, donor 1.
For assay [8], the target named is T3, CD28. Kind of assay: flow cytometry, human pan T cells, donor 2.
Assay [9] concerns the target T3, CD28. Kind of assay: flow cytometry, H929 cells (BCMA+, CD28+); whole-cell EC50, antibody has BCMA and CD28 arms. The source holds these as a separate data set.
Assay [10] concerns the target T1, BCMA. Described as above. The source holds these as a separate data set.
Assay [11] addresses T4, PSMA (human, UniProt Q04609 1-750).
T4 construct: whole, on cells; On LnCaP and C4-2B cells; also called prostate-specific membrane antigen
As to the kind of experiment: flow cytometry, C4-2B cells.

Assay [12] addresses T4, PSMA. Kind of assay: flow cytometry, LnCaP cells.
Assay [13] deals with T3, CD28. As to the kind of experiment: flow cytometry, human pan T cells, donor 1. This is another data set of the same source.
Description: (§2) Binding assay. […] Post Pan T cell isolation. 0.1×10⁶ cells were seeded per well of a 96 well V-bottom plate. Cells were stained with the fixable violet live/dead stain (L34955, Thermofisher) for 20 mins on ice in dark according to the manufacturer's protocol. Post staining cells were washed with FACS buffer (PBS+2% FBS) by spinning at 1500 rpm for 5 mins. Supernatant was discarded and cells were suspended in 100 μl the respective antibody dilutions with a starting concentration of 5 g/ml and 3-fold serial dilutions. Antibody dilutions were prepared in FACS buffer. Cells were incubated with the antibody dilutions for 30 mins at 37° C. At the end of the incubation period, cells were washed twice with FACS buffer as above followed by staining with PE conjugated Goat polyclonal antibody to human IgG (ab98596, Abcam) at a 1:50 dilution in FACS buffer. Cells were incubated with the secondary antibody for 30 mins on ice. At the end of incubation period the cells were washed with FACS buffer as above. […] Cells were pelleted and resuspended in FACS buffer for acquisition on the NOVOCYTE flow cytometer (ACEA Biosciences). […] Samples were analyzed by gating on the live cells and percentage binding was obtained by subtracting the background fluorescence from the secondary only control.
In assay [14] the target is T3, CD28. As to the kind of experiment: flow cytometry, human pan T cells, donor 2. This is another data set of the same source.
Description: as §2
For assay [15], the target named is T3, CD28. As to the kind of experiment: flow cytometry, H929 cells; antibody has no BCMA arm.

T2 sequence (A0A075B6N1 22-114): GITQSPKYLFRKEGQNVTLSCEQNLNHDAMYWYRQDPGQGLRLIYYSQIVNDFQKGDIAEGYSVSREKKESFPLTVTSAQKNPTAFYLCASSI
T4 sequence (Q04609 whole entry): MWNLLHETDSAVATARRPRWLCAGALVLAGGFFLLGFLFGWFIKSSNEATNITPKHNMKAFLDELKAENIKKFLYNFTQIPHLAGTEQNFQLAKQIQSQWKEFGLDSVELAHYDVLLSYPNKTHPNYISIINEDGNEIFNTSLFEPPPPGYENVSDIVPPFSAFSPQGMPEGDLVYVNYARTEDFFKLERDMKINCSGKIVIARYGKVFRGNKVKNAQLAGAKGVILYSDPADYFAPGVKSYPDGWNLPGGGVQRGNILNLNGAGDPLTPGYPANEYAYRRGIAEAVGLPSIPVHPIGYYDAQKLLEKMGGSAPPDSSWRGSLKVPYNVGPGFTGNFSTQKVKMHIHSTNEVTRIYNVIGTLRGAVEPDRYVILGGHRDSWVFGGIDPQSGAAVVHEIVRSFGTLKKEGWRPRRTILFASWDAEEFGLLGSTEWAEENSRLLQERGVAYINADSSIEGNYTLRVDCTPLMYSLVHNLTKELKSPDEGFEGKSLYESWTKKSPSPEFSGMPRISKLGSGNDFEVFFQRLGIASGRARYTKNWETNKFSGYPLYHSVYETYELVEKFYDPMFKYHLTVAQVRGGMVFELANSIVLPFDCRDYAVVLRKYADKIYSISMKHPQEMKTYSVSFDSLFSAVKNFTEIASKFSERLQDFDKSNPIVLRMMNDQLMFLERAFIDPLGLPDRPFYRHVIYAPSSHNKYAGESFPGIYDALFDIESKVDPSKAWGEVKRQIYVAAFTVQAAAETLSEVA

B1: VB28B40 (bispecific antibody, human IgG1, kappa, L234A L235A)
scFv: DIQMTQSPSSLSASVGDRVTITCRSSQSLVHSSGNTYLHWYQQKPGKAPKFLIYKVSNRFSGVPSRFSGSGSGTDFTLTISSLQPEDFATYYCSQSTHVPFTFGQGTKLEIKGGSEGKSSGSGSESKSTGGSQVQLQESGPGLVKPSETLSLTCTVSGYSITSGYFWNWIRQPPGKGLEWIGYISYDGSNNYNPSLKSRVTISRDTSKNQFSLKLSSVTAADTAVYYCASPSPGTGYAVDYWGQGTLVTVSSEPKSSDKTHTCPPCPAPEAAGGPSVFLFPPKPKDTLMISRTPEVTCVVVSVSHEDPEVKFNWYVDGVEVHNAKTKPREEQYNSTYRVVSVLTVLHQDWLNGKEYKCKVSNKALPAPIEKTISKAKGQPREPQVYTLPPSREEMTKNQVSLWCLVKGFYPSDIAVEWESNGQPENNYKTTPPVLDSDGSFFLYSKLTVDKSRWQQGNVFSCSVMHEALHNHYTQKSLSLSPGK
heavy: not shown
light: not shown
notes: Vβ17 × null × BCMA, human IgG1; not used; also called Vβ28B40
For B1, the half-maximal effective concentration (EC50) (as a rule, the concentration at which the effect is half-maximal) with BCMA [1] was found to be 0.121 µg/mL; in [2], 1.12 µg/mL; in [3] it was 1.21 µg/mL.

B2: B17B619 (bispecific antibody, human IgG1)
heavy: QVQLQESGPGLVKPSETLSLTCTVSGYSITSGYFWNWIRQPPGKGLEWIGYISYDGSNNYNPSLKSRVTISRDTSKNQFSLKLSSVTAADTAVYYCASPSPGTGYAVDYWGQGTLVTVSSASTKGPSVFPLAPSSKSTSGGTAALGCLVKDYFPEPVTVSWNSGALTSGVHTFPAVLQSSGLYSLSSVVTVPSSSLGTQTYICNVNHKPSNTKVDKKVEPKSCDKTHTCPPCPAPEAAGGPSVFLFPPKPKDTLMISRTPEVTCVVVSVSHEDPEVKFNWYVDGVEVHNAKTKPREEQYNSTYRVVSVLTVLHQDWLNGKEYKCKVSNKALPAPIEKTISKAKGQPREPQVYVYPPSREEMTKNQVSLTCLVKGFYPSDIAVEWESNGQPENNYKTTPPVLDSDGSFALVSKLTVDKSRWQQGNVFSCSVMHEALHNRFTQKSLSLSPG
light: DIQMTQSPSSLSASVGDRVTITCRSSQSLVHSSGNTYLHWYQQKPGKAPKFLIYKVSNRFSGVPSRFSGSGSGTDFTLTISSLQPEDFATYYCSQSTHVPFTFGQGTKLEIKRTVAAPSVFIFPPSDEQLKSGTASVVCLLNNFYPREAKVQWKVDNALQSGNSQESVTEQDSKDSTYSLSSTLTLSKADYEKHKVYACEVTHQGLSSPVTKSFNRGEC
scFv-Fc: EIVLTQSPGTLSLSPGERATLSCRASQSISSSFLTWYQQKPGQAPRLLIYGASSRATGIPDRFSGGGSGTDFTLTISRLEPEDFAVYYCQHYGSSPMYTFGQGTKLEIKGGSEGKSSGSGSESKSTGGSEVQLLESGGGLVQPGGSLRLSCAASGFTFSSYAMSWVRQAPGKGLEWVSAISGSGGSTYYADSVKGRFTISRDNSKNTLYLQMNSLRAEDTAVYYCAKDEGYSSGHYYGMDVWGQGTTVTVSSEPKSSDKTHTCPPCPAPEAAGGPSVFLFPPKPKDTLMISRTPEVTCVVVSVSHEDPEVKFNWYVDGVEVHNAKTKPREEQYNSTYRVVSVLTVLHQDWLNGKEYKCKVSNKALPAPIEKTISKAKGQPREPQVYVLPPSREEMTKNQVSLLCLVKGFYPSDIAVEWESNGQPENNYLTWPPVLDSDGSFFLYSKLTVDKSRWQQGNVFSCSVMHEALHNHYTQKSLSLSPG
notes: Human IgG1; also called Vβ17-Fab×BCMA-ScFv; Vb17-B17B21-N33S-Fab-RF × BCMB519-LH-scFv; copies: 1 + 1 + 1
With B2, the values for the EC50 (in the assay with BCMA [1]; in assay [2]; in [3]) were 0.122 µg/mL, 0.159 µg/mL and 0.124 µg/mL, respectively.

B3: VB28B7 (bispecific antibody)
heavy 1: not shown
light 1: DIQMTQSPASLSASVGETVTITCGASENIYGSLNWYQRKQGKSPQLLIYGATNLADGMSSRFSGSGSGRQFSLKISSLHPDDVATYYCQNLLSTPYTFGGGTKLELKRTVAAPSVFIFPPSDEQLKSGTASVVCLLNNFYPREAKVQWKVDNALQSGNSQESVTEQDSKDSTYSLSSTLTLSKADYEKHKVYACEVTHQGLSSPVTKSFNRGEC
heavy 2: not shown
light 2: B3 light 1
notes: also called Vβ28B7; C28B19 × Null × BCMB519
Take B3: the EC50 with CD28 [4] amounted to 0.06 µg/mL; in the assay with CD28 [5], 0.1 µg/mL; in the assay with BCMA [6] it was 0.1 µg/mL.

B4: VB28B38 (bispecific antibody, human IgG1, kappa, L234A L235A)
scFv: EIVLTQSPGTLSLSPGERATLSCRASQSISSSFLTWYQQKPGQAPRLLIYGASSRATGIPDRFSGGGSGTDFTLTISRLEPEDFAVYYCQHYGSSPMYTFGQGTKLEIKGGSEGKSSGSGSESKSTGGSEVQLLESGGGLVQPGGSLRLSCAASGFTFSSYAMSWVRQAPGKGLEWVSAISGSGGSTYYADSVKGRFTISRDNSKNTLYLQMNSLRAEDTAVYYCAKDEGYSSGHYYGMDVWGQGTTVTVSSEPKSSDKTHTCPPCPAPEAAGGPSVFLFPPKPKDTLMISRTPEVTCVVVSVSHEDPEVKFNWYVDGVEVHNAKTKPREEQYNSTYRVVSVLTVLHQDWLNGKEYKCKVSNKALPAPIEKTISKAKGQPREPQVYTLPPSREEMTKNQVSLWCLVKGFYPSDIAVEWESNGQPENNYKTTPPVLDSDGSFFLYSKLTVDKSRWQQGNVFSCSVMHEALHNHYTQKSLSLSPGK
heavy: QVQLQQPGSELVRPGASVKLSCKASGYTFTSYWMHWVKQRHGQGLEWIGNIYPGSGRTNYDEKFKSKGTLTVDTSSRTAYMHLSSLTSEDSAVYYCTREHYGSNSHPMDYWGQGTSVTVSSASTKGPSVFPLAPSSKSTSGGTAALGCLVKDYFPEPVTVSWNSGALTSGVHTFPAVLQSSGLYSLSSVVTVPSSSLGTQTYICNVNHKPSNTKVDKKVEPKSCDKTHTCPPCPAPEAAGGPSVFLFPPKPKDTLMISRTPEVTCVVVSVSHEDPEVKFNWYVDGVEVHNAKTKPREEQYNSTYRVVSVLTVLHQDWLNGKEYKCKVSNKALPAPIEKTISKAKGQPREPQVYTLPPSREEMTKNQVSLSCAVKGFYPSDIAVEWESNGQPENNYKTTPPVLDSDGSFFLVSKLTVDKSRWQQGNVFSCSVMHEALHNRFTQKSLSLSPGK
light: B3 light 1
notes: BCMA × CD28, human IgG1; also called Vβ28B38
As to B4, the EC50 with CD28 [7] is 1.27 µg/mL; with CD28 [8] it was 1.08 µg/mL; with CD28 [9], under 0.0046 µg/mL; with BCMA [10] it was under 0.0046 µg/mL.

B5: VB28B31 (bispecific antibody, human IgG1, kappa, L234A L235A)
scFv: not shown
heavy: B4 heavy
light: B3 light 1
notes: PSMA × CD28, human IgG1; also called Vβ28B31
For B5, the EC50 turned out to be 1.22 µg/mL in the assay with PSMA [11], 0.15 µg/mL with PSMA [12], 1.29 µg/mL with CD28 [13] and 0.95 µg/mL with CD28 [14].

B6: VB28B33 (bispecific antibody)
scFv: not shown
heavy: B4 heavy
light: DIQMTQSPSSLSASVGDRVTITCRSSQSLVHSSGNTYLHWYQQKPGKAPKFLIYKVSNRFSGVPSRFSGSGSGTDFTLTISSLQPEDFATYYCSQSTHVPFTFGQGTKLEIKGGSEGKSSGSGSESKSTGGSQVQLQESGPGLVKPSETLSLTCTVSGYSITSGYFWNWIRQPPGKGLEWIGYISYDGSNNYNPSLKSRVTISRDTSKNQFSLKLSSVTAADTAVYYCASPSPGTGYAVDYWGQGTLVTVSSGGSEGKSSGSGSESKSTGGSDIQMTQSPASLSASVGETVTITCGASENIYGSLNWYQRKQGKSPQLLIYGATNLADGMSSRFSGSGSGRQFSLKISSLHPDDVATYYCQNLLSTPYTFGGGTKLELKRTVAAPSVFIFPPSDEQLKSGTASVVCLLNNFYPREAKVQWKVDNALQSGNSQESVTEQDSKDSTYSLSSTLTLSKADYEKHKVYACEVTHQGLSSPVTKSFNRGEC
notes: Null × CD28 × Vβ17, human IgG1; also called Vβ28B33
Take B6: the EC50 with CD28 [14] was over 10 µg/mL; in the assay with CD28 [8], over 10 µg/mL; with CD28 [15] it was 1.4 µg/mL.

B7: VB28B36 (bispecific antibody)
scFv: not shown
heavy: B4 heavy
light: not shown
notes: Null × CD28 × BCMA, human IgG1; also called Vβ28B36
B7: the EC50 with CD28 [9] and in the assay with BCMA [10] was under 0.0046 µg/mL each time.
